Results: patent CN110404066A (QILU PHARMACEUTICAL CO LTD, dated 2019)

Key:
PD-1抗原 [1] = target: T1, PD-1抗原 (UniProt Q15116 25-167, limits assumed); test: SPR (Biacore T200), antibody captured by anti-human Fc on CM5, PD-1 antigen as analyte, mean of two repeats
PD-1抗原 [2] = target: T1, PD-1抗原; test: SPR (Biacore T200), antibody captured by anti-human Fc on CM5, PD-1 antigen as analyte, 1:1 model, second repeat
PD-1抗原 [3] = target: T1, PD-1抗原; test: SPR (Biacore T200), antibody captured by anti-human Fc on CM5, PD-1 antigen as analyte, 1:1 model, first repeat

T1 sequence (Q15116 25-167 limits assumed): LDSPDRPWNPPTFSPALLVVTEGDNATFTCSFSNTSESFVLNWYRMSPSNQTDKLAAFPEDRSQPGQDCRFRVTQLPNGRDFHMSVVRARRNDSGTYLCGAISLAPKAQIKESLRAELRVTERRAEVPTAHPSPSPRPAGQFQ

- Kd (PD-1抗原 [1]): 1.87 nM
- Kd (PD-1抗原 [2]): 1.82 nM
- Kd (PD-1抗原 [3]): 1.91 nM
B1: 抗人PD-1的单克隆抗体ZMR01 (antibody, V domains shown)
VH: QVQLVQSGAEVKKPGASVKVSCKASGYTFTNYWIHWVRQAPGQGLEWMGEIDPYDSYTNYNQKFKGRVTMTVDKSTSTVYMELSSLRSEDTAVYYCARPGFTYGGMDFWGQGTLVTVSS
VL: DIQMTQSPSSLSASVGDRVTITCKSSQSLFNSGNQKNYLAWYQQKPGKVPKLLIYGASTRDSGVPYRFSGSGSGTDFTLTISSLQPEDVATYYCQNDHYYPYTFGGGTKVEIK
